Measurements from publication PMC3678163.

Biological target: poly-SUMO2 chains (3–8) (UniProt P61956)
Assay: SPR

UniProt P61956, sequence (P61956 whole entry): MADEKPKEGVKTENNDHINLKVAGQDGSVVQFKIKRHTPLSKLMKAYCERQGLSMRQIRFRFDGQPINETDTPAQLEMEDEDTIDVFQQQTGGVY

Kd: 15 µM
B1: RNF111(282–411) fragment, wild type (domain or fragment)
chain: SENHQNNPAVPSGSIDEDVVVIEASSTPQVTANEEINVTSTDSEVEIVTVGESYRSRSTLGHSRSHWSQGSSSHASRPQEPRNRSRISTVIQPLRQNAAEVVDLTVDEDEPTVVPTTSARMESQATSASI
